{"source": "the nanobody polyreactivity screen of Harvey et al. (2022)", "data": [{"test": "yeast display, Sf9 membrane polyspecificity reagent, FACS + sequencing; frameworks hold sequencing errors", "in_short": "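Galactose-induced (36–48 hours) yeast carrying a synthetic nanobody display library were exposed to 10% biotinylated, detergent-solubilized Sf9 membrane reagent at 4 °C for 1 hour. FACS followed streptavidin microbead enrichment, using low and high (top ~1%) gates for expression (anti-HA) and reagent binding (streptavidin). Colony PCR, MiSeq 2 × 250 sequencing and CDR-length filtering followed. Labels for polyreactivity reflect the gate of origin.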", "values": [{"sequence": "QVQLVESGGGLVQAGGSLRLSCAASGSTFGSNAMGGYRKAPGKERELVAAISTSGGSTYYADSVKGRFTISRDNAKNTVYLQMNSLKPEDTAVYYCNVDPAYSITYKGDYWGQGTQVSVSS", "polyreactivity (PSR sort gate)": "low polyreactivity"}, {"sequence": "QVQLVESGGGLVQAGGSLRLSCAASGSTFFVNAMGWYRQAPGKERELVAAISTSGGRTYYADSVKGRFTISRDNAKNTVYLQMNSLKPEDTAVYYCAAYLRSPKGYYYWGQGTQVTVSS", "polyreactivity (PSR sort gate)": "high polyreactivity"}, {"sequence": "QVQLVESGGGLVQAGGSLRLSCAASGIIFLDNAMVWYRQAPGKERELVAAITTGGITYYADSVKGRFTISRDNAKNTVYLQMNSLKPEDTAVYYCAADNEWPRYDYWGQGTQVTVSS", "polyreactivity (PSR sort gate)": "low polyreactivity"}, {"sequence": "QVQLVESGGGLVQAGGSLRLSCAASGGTFYYNAMGWYRQAPGKERELVAGITQSGGNTYYADSVKGRFTISRDNAKNTDYLQMNSLKPEDTAVYYCAARIRGTWKYGYWGQGTQVTVSS", "polyreactivity (PSR sort gate)": "low polyreactivity"}, {"sequence": "QVQLVESGVGLVQAGCSLRLSCAASGSTFVLNAMGWYLQAAGKERELVAAISRGGASTYSADSVKGRFTISRDYAKNTVYLQMNSLKPEDTAVYYCNASGYGPGVVIYLVVYDYWGQGTQVTVSS", "polyreactivity (PSR sort gate)": "low polyreactivity"}, {"sequence": "QVQLVESGGGFVQAGGSLRLSCAASGFTFFPYAMGWYRQAPGNEWELVAAISWSGGRTYYADSVKGRFTISRDNAKNTVYLHMNSLKPEDTAVYYCNARWRSGPRAYDYWGHGTQVTVSS", "polyreactivity (PSR sort gate)": "high polyreactivity"}, {"sequence": "QVQLQESGGVLVQAVDRQRLSCAASGNIFLFTDMGWYRQAPGKERELVAAINAGSTTYYADSVKGRFTISRDNAKNTVYLQMNSLNPEDTEVYYCAVYYLGSGTFGYWGQGAQVTVSS", "polyreactivity (PSR sort gate)": "high polyreactivity"}, {"sequence": "QVQLVESGGGLVQAGGSLRLSCAASGGIFRSYTMGWYRQAPGKERELVAAISRSGGRTYYADSVKGRFTISRDNAKNTVYLQMNSLKPEDTAVYYCAAYVRSATLRVNYGYWGQGTQVTVSS", "polyreactivity (PSR sort gate)": "high polyreactivity"}, {"sequence": "QVQLVESGGGLVQAGGSLRLTCAPSRSIFVAYTMGWYRQAPGKERELVAAISRGGSTNYADSVKGRFTISRDNAKNTVYLQMNSLTPEETAVYYCAAKVWDGQLLYYWGQGTQVTVSS", "polyreactivity (PSR sort gate)": "low polyreactivity"}, {"sequence": "QVQLVESGGGLVQAGGSLRLSCAASGFTFSRYTMGWYRQAPGKERELVAAINRRGGSTYYADSVKGRFTISRDNAKNTVYLQMNSLKPEDTAVYYCAAAVYLGRFGVILGYWGQGTQVTVSS", "polyreactivity (PSR sort gate)": "high polyreactivity"}, {"sequence": "QVQHVESGGGLVQAGGSLRLSCDASGSIFRVYAMGWDRQAPGKERELVAAISRDGSTNYADSVKGRFTISRDNAKNTVYLQMNSLKPEDTAVYYCAAYRTYRGARMNYWGQGTQVTVSS", "polyreactivity (PSR sort gate)": "low polyreactivity"}, {"sequence": "QVQLVESGGGLVQAGGSLRLSCAASGYIFVFNTMGWYRQAPGKERELVASISWDAGTTYYADSVKGRFTISRDNAKNTVYLQMNSLKPEDTAVDYCNAGRIRSGYLDYWGQGTQVTVSS", "polyreactivity (PSR sort gate)": "low polyreactivity"}, {"sequence": "QVQLVESGGGLVQAGGSLRLSCAASGSISYFYAMGWYRQAPGKERELVAAINSGDDTYADSVKGRFTISRDNAKNTVYLQMNSLKPEDTAVYYCAVKYGGYESHYYRRPHYDYWGQGTQVTVSS", "polyreactivity (PSR sort gate)": "low polyreactivity"}, {"sequence": "QVQLVESGGGLVQAGGSLRLSCAASGSTFFPYAMGWYRQAPGKVRELVAAIRWSGGRTYYADSVKGRFTISRDNPKNTVFLQMNSLKPEDTAVYYCNGYSVYVRGEYWGQGTQVTVSS", "polyreactivity (PSR sort gate)": "high polyreactivity"}, {"sequence": "QVQLVESGGGLVQARGSLRLSCAASGFIFASNAMGWYRQAPGKERELVAAITKSGGRTYYADSVKARFTISRDTAKNTVYLQMNSLKPVDTAVYYCAAKVRVVHRPYDHWGQGTQVTVSS", "polyreactivity (PSR sort gate)": "high polyreactivity"}, {"sequence": "QVQLVESGGGLVQAGGSLRLSCAASGFIFSKYTMGWSRQAPGKERELVASISWSGGSTYYADSVKGRFTISRDTAKNTVFLQMNSLKPEDTAVYYCAAEAWGWVFGGYYYWGQGTQVTVSS", "polyreactivity (PSR sort gate)": "low polyreactivity"}, {"sequence": "QDQHVESGGGLVQARGSLRLSCAASGRIFANKAMGRYRQAPGKERELVAAISRSGVSTYYADSVKGRFTISRDNAKNTVYLQMNSLKPEDSAVYYCAARWRSGFTSGDDWGQGTQVTVSA", "polyreactivity (PSR sort gate)": "low polyreactivity"}, {"sequence": "QVQLVESGGGLVQAGGSLRLSCAASGRTFTYYAMGWYRQAPGKERKLVAAISQRGGGTYYADSVKGRFTISRDNAKNTVYLQMNSLKPEDTAVYYCAARWRLSGYDYWGQGTQVTVSS", "polyreactivity (PSR sort gate)": "high polyreactivity"}, {"sequence": "QVQLVESGGGLVQAGGSLRLSCAASGIIFKWYGMGGYRQAPGKERELVAGITWRTGSTYYADSVKGRFTISRDNAKNTVYLQMNSLKPEDTAVYYCAARLYTYPKGKYWGQGTQVTVSS", "polyreactivity (PSR sort gate)": "high polyreactivity"}, {"sequence": "QVQLVESGGGLVQAGGSLRLSCAASGRIFGVNAMGWYRQEPGKERELVAAISAGGGNTYYADSVKGRFTISRDNAKNTVYLQMNSLKPEDTAVYYCNVHRSLRMDYWGQGTQVTVSS", "polyreactivity (PSR sort gate)": "high polyreactivity"}, {"sequence": "QVQLEESAGGLVQAGGSLRLSCAASGSTFYLNAMGSYRQAPGKERELVAAITVSGGSTYYADSVKGRFTISRDNAKNTVYLQMNSLKPEDNAVYYCARELLSPTYQRWYYYWGQGSQVTVSS", "polyreactivity (PSR sort gate)": "low polyreactivity"}, {"sequence": "QVQLVESGGGLVQAGGSLSLICAASGFIYYTMGWYRQAPGKEWELVAAISRSGGSTYYADSVKGRFTISRDNAKNTVYLQMNSLKPEDTAVYYCAARRPYRDGYDYWGQGTQVTVSS", "polyreactivity (PSR sort gate)": "high polyreactivity"}]}]}
